# Experimental data taken from patent US20060014678A1 (IMPERIAL INNOVATIONS, published 2006).
# No end group written: not given here.
# T1: NPY Y2 receptor
# T1 chain: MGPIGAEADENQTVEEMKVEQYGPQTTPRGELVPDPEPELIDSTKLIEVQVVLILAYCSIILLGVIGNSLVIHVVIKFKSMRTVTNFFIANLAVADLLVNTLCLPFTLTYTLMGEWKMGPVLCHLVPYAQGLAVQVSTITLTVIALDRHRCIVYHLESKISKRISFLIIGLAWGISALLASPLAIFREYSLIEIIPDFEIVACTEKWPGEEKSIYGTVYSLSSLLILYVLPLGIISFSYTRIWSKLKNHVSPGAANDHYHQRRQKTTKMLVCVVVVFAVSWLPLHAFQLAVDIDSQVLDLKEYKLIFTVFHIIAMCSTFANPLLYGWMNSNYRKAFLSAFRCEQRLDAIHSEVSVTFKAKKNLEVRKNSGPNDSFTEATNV
# Target: T1, NPY Y2 receptor
# Experiment: receptor-binding study on a cell line expressing the NPY Y2 receptor
binder,measurement,value
"Ac-LRHYLNLLTRQRY (ends and bridges not checked, also called Y2A; Y2R selective agonist) [N-acetyl (Leu^28, Leu^31) NPY (24-36)]",IC50,1.3 nM
